This is an account of results in patent US20050069569A1.

Data set [1] deals with secPHEX (soluble, secreted form of recombinant human PHEX) (human) (UniProt P78562). As to the kind of experiment: cell-based or functional assay.
The test system of data set [2] is T1, PTHrP107-139 (human).
T1 sequence: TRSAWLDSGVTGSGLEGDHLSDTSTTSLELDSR

The target of data set [3] is T2, PTHrP107-139 (human).
T2 chain: T1 sequence

Where two headings read alike, the source gives them in different places.

For the molecule “osteocalcin (human, extracted from bones, with Gla residues) (from UniProt P02818 52-100)”, in data set [1], the 50% inhibition of secPHEX-mediated PTHrP107-139 hydrolysis (HPLC) is 3.6 µM and the inhibition of secPHEX activity at 5×10^-6 M osteocalcin is 75%. “secPHEX (soluble, secreted form of recombinant human PHEX)”: the “degradation of PTHrP107-139 (HPLC)” value with PTHrP107-139 (human) [2] was “approximately 75 to 80% degradation of the peptide was observed”.

B1: secPHEXE581V (inactive soluble human PHEX with Glu 581 replaced by Val) (protein)
chain: QGLLSLQAKQEYCLKPECIEAAAAILSKVNLSVDPCDNFFRFACDGWISNNPIPEDMPSYGVYPWLRHNVDLKLKELLEKSISRRRDTEAIQKAKILYSSCMNEKAIEKADAKPLLHILRHSPFRWPVLESNIGPEGVWSERKFSLLQTLATFRGQYSNSVFIRLYVSPDDKASNEHILKLDQATLSLAVREDYLDNSTEAKSYRDALYKFMVDTAVLLGANSSRAEHDMKSVLRLEIKIAEIMIPHENRTSEAMYNKMNISELSAMIPQFDWLGYIKKVIDTRLYPHLKDISPSENVVVRVPQYFKDLFRILGSERKKTIANYLVWRMVYSRIPNLSRRFQYRWLEFSRVIQGTTTLLPQWDKCVNFIESALPYVVGKMFVDVYFQEDKKEMMEELVEGVRWAFIDMLEKENEWMDAGTKRKAKEKARAVLAKVGYPEFIMNDTHVNEDLKAIKFSEADYFGNVLQTRKYLAQSDFFWLRKAVPKTEWFTNPTTVNAFYSASTNQIRFPAGELQKPFFWGTEYPRSLSYGAIGVIVGHVFTHGFDNNGRKYDKNGNLDPWWSTESEEKFKEKTKCMINQYSNYYWKKAGLNVKGKRTLG
Take B1: in the data set with PTHrP107-139 (human) [3], the “degradation of PTHrP107-139 (HPLC)” value is “purified secPHEXE581V failed to degrade PTHrP107-139 under similar conditions”.
